Experimental data from article PMC11228480 (Proceedings of the National Academy of Sciences of the …, 2024).

Assays:
[1] = molecular target: T1, ryanodine receptor type 1 (RyR1), endogenous, purified from mouse skeletal muscle (mouse, UniProt E9PZQ0 1-5035); assay: pull-down
[2] = molecular target: the molecule itself; assay: cryo-EM structure
[3] = molecular target: T1, ryanodine receptor type 1 (RyR1), …; assay: cryo-EM structure

T1 sequence (E9PZQ0 whole entry): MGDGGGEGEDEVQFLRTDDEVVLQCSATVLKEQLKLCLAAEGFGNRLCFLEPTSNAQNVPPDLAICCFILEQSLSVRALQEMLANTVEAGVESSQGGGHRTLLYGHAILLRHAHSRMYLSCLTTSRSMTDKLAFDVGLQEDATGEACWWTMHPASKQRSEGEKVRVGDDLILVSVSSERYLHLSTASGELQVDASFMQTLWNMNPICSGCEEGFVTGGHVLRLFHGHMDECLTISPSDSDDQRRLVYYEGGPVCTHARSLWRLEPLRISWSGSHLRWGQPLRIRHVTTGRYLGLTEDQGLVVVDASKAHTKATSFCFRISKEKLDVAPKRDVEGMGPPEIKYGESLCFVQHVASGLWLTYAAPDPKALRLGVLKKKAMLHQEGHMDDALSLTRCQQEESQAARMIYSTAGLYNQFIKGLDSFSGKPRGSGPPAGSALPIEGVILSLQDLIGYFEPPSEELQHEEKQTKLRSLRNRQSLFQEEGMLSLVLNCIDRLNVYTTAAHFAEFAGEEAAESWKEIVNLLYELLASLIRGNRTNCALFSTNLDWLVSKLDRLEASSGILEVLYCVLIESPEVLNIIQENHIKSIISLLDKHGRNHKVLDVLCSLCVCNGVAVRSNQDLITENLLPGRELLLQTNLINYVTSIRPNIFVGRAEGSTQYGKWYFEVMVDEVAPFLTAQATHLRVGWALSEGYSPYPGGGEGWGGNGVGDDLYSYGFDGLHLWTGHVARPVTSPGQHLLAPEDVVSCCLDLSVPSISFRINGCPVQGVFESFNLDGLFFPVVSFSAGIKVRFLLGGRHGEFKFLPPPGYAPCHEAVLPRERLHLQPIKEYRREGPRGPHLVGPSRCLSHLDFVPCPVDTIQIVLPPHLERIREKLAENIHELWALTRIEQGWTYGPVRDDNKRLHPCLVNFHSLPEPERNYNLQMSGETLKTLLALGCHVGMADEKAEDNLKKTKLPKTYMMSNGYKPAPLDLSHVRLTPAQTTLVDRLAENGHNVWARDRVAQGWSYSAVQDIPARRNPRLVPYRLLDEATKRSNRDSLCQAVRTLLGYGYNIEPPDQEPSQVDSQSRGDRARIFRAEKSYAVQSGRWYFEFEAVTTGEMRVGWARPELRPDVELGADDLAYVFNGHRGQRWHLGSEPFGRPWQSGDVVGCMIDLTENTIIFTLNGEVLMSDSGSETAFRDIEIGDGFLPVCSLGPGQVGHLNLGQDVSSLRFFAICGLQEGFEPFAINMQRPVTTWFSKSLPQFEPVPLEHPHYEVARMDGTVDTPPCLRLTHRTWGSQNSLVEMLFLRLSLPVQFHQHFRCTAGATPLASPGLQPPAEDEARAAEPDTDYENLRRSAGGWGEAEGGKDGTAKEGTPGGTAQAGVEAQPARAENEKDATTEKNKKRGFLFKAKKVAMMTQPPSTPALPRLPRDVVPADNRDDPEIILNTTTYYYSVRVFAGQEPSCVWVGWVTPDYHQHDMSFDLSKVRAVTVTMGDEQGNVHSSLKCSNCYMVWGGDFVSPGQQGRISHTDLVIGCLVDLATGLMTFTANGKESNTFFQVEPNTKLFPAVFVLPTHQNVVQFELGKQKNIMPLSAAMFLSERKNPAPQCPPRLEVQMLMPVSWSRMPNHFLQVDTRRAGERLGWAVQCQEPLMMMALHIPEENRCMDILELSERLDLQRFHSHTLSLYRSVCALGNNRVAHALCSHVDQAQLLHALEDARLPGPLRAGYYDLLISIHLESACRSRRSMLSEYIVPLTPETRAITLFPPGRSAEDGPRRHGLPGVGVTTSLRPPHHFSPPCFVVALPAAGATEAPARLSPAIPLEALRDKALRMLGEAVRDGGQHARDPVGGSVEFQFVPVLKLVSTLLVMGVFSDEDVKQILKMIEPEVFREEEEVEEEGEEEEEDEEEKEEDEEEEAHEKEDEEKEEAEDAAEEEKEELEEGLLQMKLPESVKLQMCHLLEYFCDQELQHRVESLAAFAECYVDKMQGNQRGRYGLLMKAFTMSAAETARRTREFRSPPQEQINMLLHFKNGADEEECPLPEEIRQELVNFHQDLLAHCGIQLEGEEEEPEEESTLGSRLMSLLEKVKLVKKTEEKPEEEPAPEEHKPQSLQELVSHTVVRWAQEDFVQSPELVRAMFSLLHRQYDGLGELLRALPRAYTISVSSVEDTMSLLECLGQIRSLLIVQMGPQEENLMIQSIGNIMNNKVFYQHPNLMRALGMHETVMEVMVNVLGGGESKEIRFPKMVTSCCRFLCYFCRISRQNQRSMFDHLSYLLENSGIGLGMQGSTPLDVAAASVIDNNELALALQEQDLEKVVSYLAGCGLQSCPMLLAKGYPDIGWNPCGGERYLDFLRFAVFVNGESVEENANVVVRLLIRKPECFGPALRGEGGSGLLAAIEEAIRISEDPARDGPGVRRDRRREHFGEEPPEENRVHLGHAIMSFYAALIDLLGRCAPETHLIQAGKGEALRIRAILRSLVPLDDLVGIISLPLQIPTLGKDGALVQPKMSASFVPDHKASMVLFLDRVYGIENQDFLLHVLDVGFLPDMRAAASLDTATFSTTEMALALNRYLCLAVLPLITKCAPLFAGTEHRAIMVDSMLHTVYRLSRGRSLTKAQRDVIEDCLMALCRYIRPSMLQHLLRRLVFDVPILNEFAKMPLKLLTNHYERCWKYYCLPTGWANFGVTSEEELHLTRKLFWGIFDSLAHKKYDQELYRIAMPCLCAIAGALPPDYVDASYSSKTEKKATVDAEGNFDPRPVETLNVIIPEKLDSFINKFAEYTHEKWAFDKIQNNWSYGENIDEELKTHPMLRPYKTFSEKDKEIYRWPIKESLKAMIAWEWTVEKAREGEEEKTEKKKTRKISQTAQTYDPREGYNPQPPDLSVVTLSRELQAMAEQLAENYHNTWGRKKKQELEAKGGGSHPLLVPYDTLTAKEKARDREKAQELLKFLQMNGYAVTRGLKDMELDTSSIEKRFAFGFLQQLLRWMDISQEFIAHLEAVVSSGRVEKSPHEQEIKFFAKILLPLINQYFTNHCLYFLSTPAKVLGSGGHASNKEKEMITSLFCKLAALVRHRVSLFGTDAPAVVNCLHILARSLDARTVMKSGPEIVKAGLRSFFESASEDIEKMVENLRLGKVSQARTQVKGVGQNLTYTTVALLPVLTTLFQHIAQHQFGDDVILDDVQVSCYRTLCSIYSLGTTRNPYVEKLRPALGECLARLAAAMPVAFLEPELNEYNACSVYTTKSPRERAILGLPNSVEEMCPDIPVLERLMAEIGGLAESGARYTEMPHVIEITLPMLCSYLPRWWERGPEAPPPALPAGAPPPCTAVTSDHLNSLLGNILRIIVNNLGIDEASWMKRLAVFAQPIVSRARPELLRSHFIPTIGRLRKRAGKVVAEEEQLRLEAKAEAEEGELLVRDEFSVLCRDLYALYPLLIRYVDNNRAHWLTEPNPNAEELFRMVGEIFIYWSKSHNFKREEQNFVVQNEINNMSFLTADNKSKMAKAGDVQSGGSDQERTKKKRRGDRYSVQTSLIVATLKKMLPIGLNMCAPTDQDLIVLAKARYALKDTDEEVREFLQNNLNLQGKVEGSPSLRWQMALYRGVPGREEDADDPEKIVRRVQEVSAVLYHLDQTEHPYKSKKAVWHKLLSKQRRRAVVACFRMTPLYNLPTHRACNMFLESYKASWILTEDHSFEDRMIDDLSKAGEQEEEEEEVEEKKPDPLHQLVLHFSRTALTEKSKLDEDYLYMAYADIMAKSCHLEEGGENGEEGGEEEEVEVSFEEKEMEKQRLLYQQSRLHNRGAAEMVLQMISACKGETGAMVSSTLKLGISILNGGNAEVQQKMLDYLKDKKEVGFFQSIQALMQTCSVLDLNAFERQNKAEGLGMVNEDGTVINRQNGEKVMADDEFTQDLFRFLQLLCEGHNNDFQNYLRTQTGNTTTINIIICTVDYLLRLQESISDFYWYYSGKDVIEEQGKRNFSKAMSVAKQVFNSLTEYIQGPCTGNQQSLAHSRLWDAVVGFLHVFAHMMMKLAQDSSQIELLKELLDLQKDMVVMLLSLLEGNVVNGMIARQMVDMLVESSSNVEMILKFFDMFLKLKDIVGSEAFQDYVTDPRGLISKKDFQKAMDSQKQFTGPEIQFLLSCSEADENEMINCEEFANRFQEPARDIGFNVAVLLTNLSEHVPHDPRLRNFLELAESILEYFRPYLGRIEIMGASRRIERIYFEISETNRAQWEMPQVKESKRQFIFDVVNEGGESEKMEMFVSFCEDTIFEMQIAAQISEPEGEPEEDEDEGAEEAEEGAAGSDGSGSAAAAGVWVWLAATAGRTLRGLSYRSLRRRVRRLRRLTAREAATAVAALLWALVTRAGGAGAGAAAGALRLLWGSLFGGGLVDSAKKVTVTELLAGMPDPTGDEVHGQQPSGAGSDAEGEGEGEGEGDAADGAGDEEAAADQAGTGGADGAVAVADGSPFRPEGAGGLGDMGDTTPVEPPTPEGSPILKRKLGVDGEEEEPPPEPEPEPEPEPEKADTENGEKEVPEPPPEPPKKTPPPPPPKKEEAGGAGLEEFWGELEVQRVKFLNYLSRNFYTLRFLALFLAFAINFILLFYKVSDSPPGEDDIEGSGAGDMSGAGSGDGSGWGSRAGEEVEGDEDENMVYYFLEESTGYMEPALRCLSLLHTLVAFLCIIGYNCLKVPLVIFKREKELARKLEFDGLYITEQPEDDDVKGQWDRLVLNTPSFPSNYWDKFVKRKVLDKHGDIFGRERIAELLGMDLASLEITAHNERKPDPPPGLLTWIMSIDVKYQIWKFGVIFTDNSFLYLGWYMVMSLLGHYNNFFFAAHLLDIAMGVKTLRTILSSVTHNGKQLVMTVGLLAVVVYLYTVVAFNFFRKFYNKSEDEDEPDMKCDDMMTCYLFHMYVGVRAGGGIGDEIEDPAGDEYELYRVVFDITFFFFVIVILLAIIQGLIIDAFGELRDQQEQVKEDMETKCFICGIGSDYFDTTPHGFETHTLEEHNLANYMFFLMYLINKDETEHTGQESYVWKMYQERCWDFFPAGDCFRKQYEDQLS

B1: GST-tagged S100A1 (natural protein)
chain: MGSELESAMETLINVFHAHSGQEGDKYKLSKKELKDLLQTELSGFLDVQKDADAVDKVMKELDENGDGEVDFKEYVVLVAALTVACNNFFWETS
- binding result [1]: binds

B2: recombinant mouse S100A1 (untagged) (natural protein)
chain: MGSELESAMETLINVFHAHSGQEGDKYKLSKKELKDLLQTELSGFLDVQKDADAVDKVMKELDENGDGEVDFKEYVVLVAALTVACNNFFWETS
- stoichiometry N [2]: 2
- binding result [3]: binds
